Measured values published in paper PMC10707033.
Where two headings read alike, the source gives them in different places.

Legend:
[1] = biological target: muscle-type nicotinic acetylcholine receptor from the electric organ of Torpedo californica (Torpedo californica (endogenous in electric organ)) (UniProt P02710); experiment: radioligand binding
[2] = biological target: muscle-type nicotinic acetylcholine receptor from the electric organ of Torpedo californica (Torpedo californica (endogenous in electric organ)) (UniProt P02710); experiment: radioligand binding; remark: listed apart in the source

Chain of UniProt P02710 (P02710 25-461 limits assumed, chain 1 of 4): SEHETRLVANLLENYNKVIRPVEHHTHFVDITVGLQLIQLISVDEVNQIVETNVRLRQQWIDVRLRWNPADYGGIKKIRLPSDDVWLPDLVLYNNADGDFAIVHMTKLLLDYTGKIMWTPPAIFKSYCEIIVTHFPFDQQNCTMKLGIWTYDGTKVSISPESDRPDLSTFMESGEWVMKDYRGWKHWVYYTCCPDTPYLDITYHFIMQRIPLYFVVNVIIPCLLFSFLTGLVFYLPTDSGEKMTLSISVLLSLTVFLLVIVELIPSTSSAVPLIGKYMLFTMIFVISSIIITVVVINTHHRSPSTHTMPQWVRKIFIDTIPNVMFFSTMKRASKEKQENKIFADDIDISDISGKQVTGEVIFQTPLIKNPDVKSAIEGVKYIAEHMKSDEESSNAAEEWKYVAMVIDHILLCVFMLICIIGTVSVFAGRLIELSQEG
Chain of UniProt P02710 (P02712 25-493 limits assumed, chain 2 of 4, further chain): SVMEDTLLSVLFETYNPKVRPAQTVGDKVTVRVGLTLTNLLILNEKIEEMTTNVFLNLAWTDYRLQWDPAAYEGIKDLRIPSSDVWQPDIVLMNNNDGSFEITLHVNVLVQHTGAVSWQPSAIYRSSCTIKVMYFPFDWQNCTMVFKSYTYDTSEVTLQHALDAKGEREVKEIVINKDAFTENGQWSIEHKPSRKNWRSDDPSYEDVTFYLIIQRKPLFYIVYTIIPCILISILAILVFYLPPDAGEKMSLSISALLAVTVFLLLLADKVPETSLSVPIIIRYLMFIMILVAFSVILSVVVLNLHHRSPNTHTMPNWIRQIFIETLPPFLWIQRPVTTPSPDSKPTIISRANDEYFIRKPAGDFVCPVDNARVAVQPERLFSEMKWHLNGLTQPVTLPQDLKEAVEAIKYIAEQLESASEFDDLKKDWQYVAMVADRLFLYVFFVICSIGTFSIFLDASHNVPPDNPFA
Chain of UniProt P02710 (P02714 18-506 limits assumed, chain 3 of 4, further chain): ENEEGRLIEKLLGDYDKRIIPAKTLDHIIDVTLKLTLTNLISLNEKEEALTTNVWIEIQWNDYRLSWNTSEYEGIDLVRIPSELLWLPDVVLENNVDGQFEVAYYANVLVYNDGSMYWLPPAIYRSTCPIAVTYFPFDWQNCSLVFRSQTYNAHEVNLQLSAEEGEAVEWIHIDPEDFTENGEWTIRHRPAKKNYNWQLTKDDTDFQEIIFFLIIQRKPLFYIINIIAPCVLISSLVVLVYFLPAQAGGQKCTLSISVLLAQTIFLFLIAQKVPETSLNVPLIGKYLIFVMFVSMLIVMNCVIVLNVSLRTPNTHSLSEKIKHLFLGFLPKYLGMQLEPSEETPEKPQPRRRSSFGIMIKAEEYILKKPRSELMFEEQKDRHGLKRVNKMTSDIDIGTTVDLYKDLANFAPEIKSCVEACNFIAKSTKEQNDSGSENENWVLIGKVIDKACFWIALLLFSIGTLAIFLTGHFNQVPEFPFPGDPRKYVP
Chain of UniProt P02710 (P02718 22-522 limits assumed, chain 4 of 4, further chain): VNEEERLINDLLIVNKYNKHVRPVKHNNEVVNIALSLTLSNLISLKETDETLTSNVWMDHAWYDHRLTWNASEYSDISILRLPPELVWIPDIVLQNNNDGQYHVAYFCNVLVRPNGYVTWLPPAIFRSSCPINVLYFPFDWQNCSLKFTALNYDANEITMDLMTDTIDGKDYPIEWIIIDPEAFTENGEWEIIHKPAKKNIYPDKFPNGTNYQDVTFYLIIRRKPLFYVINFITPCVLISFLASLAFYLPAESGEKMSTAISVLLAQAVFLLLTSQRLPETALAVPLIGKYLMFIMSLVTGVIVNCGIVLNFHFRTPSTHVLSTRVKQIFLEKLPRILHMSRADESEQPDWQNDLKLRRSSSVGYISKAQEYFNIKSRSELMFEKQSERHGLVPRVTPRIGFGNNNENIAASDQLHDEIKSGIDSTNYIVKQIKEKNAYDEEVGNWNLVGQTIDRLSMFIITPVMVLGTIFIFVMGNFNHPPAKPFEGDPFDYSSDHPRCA

B1: synthetic SLURP-1 (natural protein)
chain: LKCYTCKEPMTSASCRTITRCKPEDTACMTTLVTVEAEYPFNQSPVVTRSCSSSCVATDPDSIGAAHLIFCCFRDLCNSEL
Which IC50 [1] does the source give for B1 here?
The IC50 was 3.92 µM.

And the IC50 [2]?
The IC50 was 4.05 µM.

B2: recombinant SLURP-1 with one additional N-terminal Met residue (natural protein)
chain: MLKCYTCKEPMTSASCRTITRCKPEDTACMTTLVTVEAEYPFNQSPVVTRSCSSSCVATDPDSIGAAHLIFCCFRDLCNSEL
What does the source list for B2?
IC50 [1]: 9.55 µM; IC50 [2]: 10.7 µM
